This assay has as its target m102.4. The assay is described as follows: ELISA. (An ELISA detects its analyte on a solid surface through an enzyme-linked reagent.)

B1: NiV sG (domain or fragment)
chain: QNYTRSTDNQAVIKDALQGIQQQIKGLADKIGTEIGPKVSLIDTSSTITIPANIGLLGSKISQSTASINENVNEKCKFTLPPLKIHECNISCPNPLPFREYRPQTEGVSNLVGLPNNICLQKTSNQILKPKLISYTLPVVGQSGTCITDPLLAMDEGYFAYSHLERIGSCSRGVSKQRIIGVGEVLDRGDEVPSLFMTNVWTPPNPNTVYHCSAVYNNEFYYVLCAVSTVGDPILNSTYWSGSLMMTRLAVKPKSNGGGYNQHQLALRSIEKGRYDKVMPYGPSGIKQGDTLYFPAVGFLVRTEFKYNDSNCPITKCQYSKPENCRLSMGIRPNSHYILRSGLLKYNLSDGENPKVVFIEISDQRLSIGSPSKIYDSLGQPVFYQASFSWDTMIKFGDVLTVNPLVVNWRNNTVISRPGQSQCPRFNTCPEICWEGVYNDAFLIDRINWISAGVFLDSNQTAENPVFTVFKDNEILYRAQLASEDTNAQKTITNCFLLKNKIWCISLVEIYDTGDNVIRPKLFAVKIPEQCT
Broadly, the Kd is the constant that tells how readily two partners part at equilibrium. The low end stands for a tighter complex, the high end for a looser complex. In turn, B1 gave a dissociation constant Kd of 0.15 nM.

Source of the values: PMC8537613 (2021).
